# Results from article doi:10.1101/2024.03.27.586873.
# Target: 6xHis-tagged Imp1 (ΦKZ gp69) (phage ΦKZ)
# Assay: SEC + other: mass photometry
substance,measurement,value
FLAG-tagged Imp6 (ΦKZ gp67) (natural protein),stoichiometry N (gp67 per Imp1),2
